Test results as given in article PMC3316568, “Crystal Structure of Streptococcus pyogenes Csn2 Reveals Calcium-Dependent Conformational Changes in Its Tertiary and Quaternary Structure” (PLoS ONE, 2012).

Assays:
[1] = target: the molecule itself; assay: crystal structure; selenomethionyl Csn2, 2.2 Å, MAD; crystals at 20°C from 150 mM KCl, 4 mM DTT, 100 mM HEPES pH 7.0 with 2.3 M sodium acetate pH 7.0; no calcium added; dimer in the asymmetric unit, tetramer with the symmetry-related dimer
[2] = target: the molecule itself; assay: SEC; analytical, Superdex 200 10/300 GL; 200 mM NaCl, 2 mM DTT, 10 mM Tris-HCl pH 8.0; 0.5 mL of 1.0 mg/mL Csn2; no calcium added
Csn2 [3] = target: T1, Csn2 (Streptococcus pyogenes, UniProt Q99ZV9 1-220); assay: EMSA; no added metal; DNA:Csn2 tetramer 1:0, 1:1, 1:10; 50 mM NaCl, 20 mM HEPES pH 7.5, room temperature, 20 min; 150 ng DNA; 10% native Tris-glycine PAGE, ethidium bromide stain; conditions: protein: recombinant; tags: (His)6-MBP tag removed by TEV protease; chain copies: 4
T1 sequence: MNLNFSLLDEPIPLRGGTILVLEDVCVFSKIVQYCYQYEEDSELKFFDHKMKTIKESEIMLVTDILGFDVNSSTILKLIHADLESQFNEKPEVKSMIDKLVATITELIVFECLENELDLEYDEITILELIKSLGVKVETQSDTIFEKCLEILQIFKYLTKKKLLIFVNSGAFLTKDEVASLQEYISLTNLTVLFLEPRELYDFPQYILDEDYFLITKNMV

Csn2 [4] = target: T1, Csn2; assay: EMSA; no added metal; DNA:Csn2 tetramer 1:0, 1:1, 1:10; non-specific binding; 50 mM NaCl, 20 mM HEPES pH 7.5, room temperature, 20 min; 150 ng DNA; 10% native Tris-glycine PAGE, ethidium bromide stain; conditions: protein: recombinant; tags: (His)6-MBP tag removed by TEV protease; chain copies: 4

B1: Selenomethionyl Streptococcus pyogenes Csn2 (natural protein)
chain: MNLNFSLLDEPIPLRGGTILVLEDVCVFSKIVQYCYQYEEDSELKFFDHKMKTIKESEIMLVTDILGFDVNSSTILKLIHADLESQFNEKPEVKSMIDKLVATITELIVFECLENELDLEYDEITILELIKSLGVKVETQSDTIFEKCLEILQIFKYLTKKKLLIFVNSGAFLTKDEVASLQEYISLTNLTVLFLEPRELYDFPQYILDEDYFLITKNMV
modifications: selenomethionine (SeMet labelling)
notes: Csn2, CRISPR-associated protein of the Nmeni subtype (type II-A), Streptococcus pyogenes; same construct as m1, expressed as selenomethionyl protein; residues up to 220 are named for the structure; Same construct as m1 with selenomethionine; Two monomers (A, B) in the asymmetric unit; the tetramer is formed with a symmetry-related dimer; also called SeMet Csn2; selenomethionyl S. pyogenes Csn2; …
- stoichiometry N [1]: 4

B2: Streptococcus pyogenes Csn2 (native) (natural protein)
chain: MNLNFSLLDEPIPLRGGTILVLEDVCVFSKIVQYCYQYEEDSELKFFDHKMKTIKESEIMLVTDILGFDVNSSTILKLIHADLESQFNEKPEVKSMIDKLVATITELIVFECLENELDLEYDEITILELIKSLGVKVETQSDTIFEKCLEILQIFKYLTKKKLLIFVNSGAFLTKDEVASLQEYISLTNLTVLFLEPRELYDFPQYILDEDYFLITKNMV
notes: Csn2, CRISPR-associated protein of the Nmeni subtype (type II-A), Streptococcus pyogenes; the csn2 gene cloned into pHMGWA; monomeric molecular weight printed as 26.0 kDa; residues up to 220 are named for the structure; also called Native Csn2; source: E. coli BL21 (DE3), purified (HisTrap HP, TEV cleavage, second HisTrap HP, Superdex200); not shown: His6, N-terminal, cleaved; MBP, N-terminal, …
- stoichiometry N [2]: 4

B3: S. pyogenes CRISPR DNA 90 bp (dsDNA)
DNA 1: TTTTAGACAAAAATAGTCTACGAGGTTTTAGAGCTATGCTGTTTTGAATGGTCCCAAAACTGCGCTGGTTGATTTCTTCTTGCGCTTTTT
DNA 2: AAAAAGCGCAAGAAGAAATCAACCAGCGCAGTTTTGGGACCATTCAAAACAGCATAGCTCTAAAACCTCGTAGACTATTTTTGTCTAAAA
- binding result (Csn2 [3]): binds

B4: control DNA 90 bp (ERD1 promoter) (dsDNA)
DNA 1: TCTTAAAACTCCACAAACATTACGGCAGTTAGAATTTAAATTTATCTTGGAATATTGTTTGTATATTATTAACAAATGTAAATTGGTGTA
DNA 2: TACACCAATTTACATTTGTTAATAATATACAAACAATATTCCAAGATAAATTTAAATTCTAACTGCCGTAATGTTTGTGGAGTTTTAAGA
- binding result (Csn2 [4]): binds
